Results published in patent US20170037149A1 (Amgen, published 2017).
Numbering of substitutions follows the chain as printed. Values belong to the binder of their own block, whether it stands above or below them.

Molecular target: T1, human FLT3 (human, UniProt P36888 27-993)
T1 construct: On transfected CHO cells, or on the FLT3 positive human AML cell lines EOL-1 / MV4-11 where the row says so; also called hu FLT3; full length human FLT3
Test: FACS, scFv on CHO-human FLT3 pre-incubated with FLT3 ligand (competitor)
Protocol: The detection was performed using mouse anti-FLAG+PE-conjugated goat anti-mouse and the Fluorescence median detected by FACS (median (+ligand)/median (w/o ligand)*100%)
Afterwards cells were not washed but directly stained with FLT3 binder (scFv's). […] As negative control, cells were incubated with an unspecific scFv instead of FLT3 scFv.
For the evaluation of the data, the fluorescence median was detected by FACS.

B2: FL-46 scFv (scFv)
scFv: QVTLKESGPVLVKPTQTLTLTCTFSGFSLSNARMGVSWIRQPPGKCLEWLALIYWNDDKRYSPSLKSRLTITKDTSKNQVVLTMTNMDPVDTATYYCARMVGYGSGWYAYFDYWGQGTLVTVSSGGGGSGGGGSGGGGSDIQMTQSPSSLSASVGDRVTITCRASQGIRNDLGWYQQKPGKAPKRLIYAASSLQSGVPSRFSGSGSGTEFTLTISSLQPEDFATYYCLQHNSYPLTFGCGTKVEIK
notes: periplasmic prep
- median [+ligand]/median [w/o ligand]*100: ≥ 75%

B4: FL-5 scFv (scFv)
scFv: QVTLKESGPMLVKPTETLTLTCTFSGFSLRNARMGVSWIRQPPGKALEWLAHIFWNDEKSYSTSLKSRLTISKDTSKSQVVLTMTNMDPVDTATYYCARIPYYGSGSYNYGMDVWGQGTTVTVSSGGGGSGGGGSGGGGSDIQMTQSPSSLSASVGDRVTITCRASQGIRNDLGWYQQKPGKAPKRLIYAASSLQSGVPSRFSGSGSGTEFTLTISSLQPEDFATYYCLQHNTYPLTFGGGTKVDIK
notes: periplasmic prep
- median [+ligand]/median [w/o ligand]*100: ≥ 75%

B6: FL-48 scFv (scFv)
scFv: B4 scFv with A46C, G240C
notes: periplasmic prep
- median [+ligand]/median [w/o ligand]*100: ≥ 75%

B7: FL-42 scFv (scFv)
scFv: QVTLKESGPALVKPTETLTLTCTLSGFSLNNARMAVSWIRQPPGKCLEWLAHIFSNDEKSYSTSLKSRLTISKDTSKSQVVLTMTNMDPEDTATYYCARIVGYGTGWYGFFDYWGQGILVTVSSGGGGSGGGGSGGGGSDIQMTQSPSSLSASVGDRVTITCRASQGIRNDLAWYQQKPGKAPKRLIYAASSLQSGVPSRFSGSGSGTEFTLTISSLQPEDFATYYCLQHNSYPLTFGCGTKVEIK
notes: periplasmic prep
- median [+ligand]/median [w/o ligand]*100: ≥ 75%

B8: FL-47 scFv (scFv)
scFv: B7 scFv with E16Q, L24F, N30S, A35G, N86D, A164T, A173G
notes: periplasmic prep
- median [+ligand]/median [w/o ligand]*100: ≥ 75%

More lines, now with the values ahead:

- median [+ligand]/median [w/o ligand]*100: ≥ 75%
B1: FL-49 scFv (scFv)
scFv: QVTLKESGPTLVKPTETLTLTCTVSGFSLNNARMGVSWIRQPPGKCLEWLAHIFSNDEKSYSTSLKNRLTISKDSSKTQVVLTMTNVDPVDTATYYCARIVGYGTGWFGYFDYWGQGTQVTVSSGGGGSGGGGSGGGGSDIQMTQSPSSLSASVGDRVTITCRASQDIRTDLAWYQQKPGKAPKRLIYAASSLQSGVPSRFSGSGSGTEFTLTISSLQPEDFATYYCLQHNRYPLTFGCGTKVDIK
notes: periplasmic prep

- median [+ligand]/median [w/o ligand]*100: ≥ 75%
B3: FL-9 scFv (scFv)
scFv: QVTLKESGPTLVKPTETLTLTCTVSGFSLSNARMGVSWIRQPPGKALEWLAHIFSNDEKSYSTSLKSRLTISKDTSKSQVVLTMTNMDPVDTATYYCARIPGYGGNFYYHYYGMDVWGQGTTVTVSSGGGGSGGGGSGGGGSDIQMTQSPSSLSASVGDRVTITCRASQGIRNDLAWYQQKPGKAPKRLIYAASTVQSGVPSRFSGSGSGTEFALTISSLQPEDFATYYCLQHNSFPWTFGQGTKVDIK
notes: periplasmic prep

- median [+ligand]/median [w/o ligand]*100: ≥ 75%
B5: FL-34 scFv (scFv)
scFv: B4 scFv with M10A, T233S, V244L, D245E
notes: periplasmic prep

- median [+ligand]/median [w/o ligand]*100: ≥ 75%
B9: FL-45 scFv (scFv)
scFv: QVTLKESGPALVKPTQTLTLTCTFSGFSLSNARMGVSWIRQPPGKCLEWLAHIFSNDEKSYRTSLKSRLTISKDTSKSQVVLTMTNMDPVDTATYYCARIVGYGSGWYAYFDYWGQGTLVTVSSGGGGSGGGGSGGGGSDIQMTQSPSSLSASVGDRVTITCRASQGIRNDLGWYQQKPGKAPKRLIYAASSLQSGVPSRFSGSGSGTEFTLTISSLQPEDFATYYCLQHNSYPLTFGCGTKVEIK
notes: periplasmic prep
